Laboratory results from patent US20180155451A1 (published 2018).

T1: FcγRIIb extracellular domain with C-terminal His tag (human, UniProt P31994 43-217)
T1 construct: extracellular domain; also called FcgRIIb; 2b; not shown: His tag at the C terminus
T1 sequence (looked up): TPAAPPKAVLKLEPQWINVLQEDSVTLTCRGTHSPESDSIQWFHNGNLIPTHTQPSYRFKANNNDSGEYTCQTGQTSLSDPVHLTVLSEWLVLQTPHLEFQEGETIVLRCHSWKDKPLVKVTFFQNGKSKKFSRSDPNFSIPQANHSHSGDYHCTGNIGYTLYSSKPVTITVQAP

B1: GpH7-A5/GpH7-B3 variant G237_20W/GpL16-k0 (heterodimerized antibody, He Ab) (antibody, human IgG1, kappa)
heavy 1: not shown
heavy 2: not shown
light: DIVMTQSPLSLPVTPGEPASISCQASESLVHSNRNTYLHWYLQKPGQSPQLLIYKVSNRFSGVPDRFSGSGSGTDFTLKISRVEAEDVGVYYCSQNTHVPPTFGQGTKVEIERTVAAPSVFIFPPSDEQLKSGTASVVCLLNNFYPREAKVQWKVDNALQSGNSQESVTEQDSKDSTYSLSSTLTLSKADYEKHKVYACEVTHQGLSSPVTKSFNRGEC
notes: Anti-glypican-3 IgG1; the alteration is in the GpH7-B3 chain only; also called G237W
B2: GpH7-A5/GpH7-B3 variant G237_19Q/GpL16-k0 (heterodimerized antibody, He Ab) (antibody, human IgG1, kappa)
heavy 1: not shown
heavy 2: not shown
light: B1 light
notes: Anti-glypican-3 IgG1; the alteration is in the GpH7-B3 chain only; also called G237Q
B3: GpH7-A5/GpH7-B3 variant G237_18N/GpL16-k0 (heterodimerized antibody, He Ab) (antibody, human IgG1, kappa)
heavy 1: not shown
heavy 2: not shown
light: B1 light
notes: Anti-glypican-3 IgG1; the alteration is in the GpH7-B3 chain only; also called G237N
B4: GpH7-A5/GpH7-B3 variant G237_15Y/GpL16-k0 (heterodimerized antibody, He Ab) (antibody, human IgG1, kappa)
heavy 1: not shown
heavy 2: not shown
light: B1 light
notes: Anti-glypican-3 IgG1; the alteration is in the GpH7-B3 chain only; also called G237Y
B5: GpH7-A5/GpH7-B3 variant G237_10E/GpL16-k0 (heterodimerized antibody, He Ab) (antibody, human IgG1, kappa)
heavy 1: not shown
heavy 2: not shown
light: B1 light
notes: Anti-glypican-3 IgG1; the alteration is in the GpH7-B3 chain only; also called G237E
B6: GpH7-A5/GpH7-B3 variant G237_06M/GpL16-k0 (heterodimerized antibody, He Ab) (antibody, human IgG1, kappa)
heavy 1: not shown
heavy 2: not shown
light: B1 light
notes: Anti-glypican-3 IgG1; the alteration is in the GpH7-B3 chain only; also called G237M
B7: GpH7-A5/GpH7-B3 variant L234_09D/GpL16-k0 (heterodimerized antibody, He Ab) (antibody, human IgG1, kappa)
heavy 1: not shown
heavy 2: not shown
light: B1 light
notes: Anti-glypican-3 IgG1; the alteration is in the GpH7-B3 chain only; also called L234D
B8: GpH7-A5/GpH7-B3 variant G237_02A/GpL16-k0 (heterodimerized antibody, He Ab) (antibody, human IgG1, kappa)
heavy 1: not shown
heavy 2: not shown
light: B1 light
notes: Anti-glypican-3 IgG1; the alteration is in the GpH7-B3 chain only; also called G237A
B9: GpH7-A5/GpH7-B3 variant G237_04F/GpL16-k0 (heterodimerized antibody, He Ab) (antibody, human IgG1, kappa)
heavy 1: not shown
heavy 2: not shown
light: B1 light
notes: Anti-glypican-3 IgG1; the alteration is in the GpH7-B3 chain only; also called G237F
B10: GpH7-A5/GpH7-B3 variant G237_05P/GpL16-k0 (heterodimerized antibody, He Ab) (antibody, human IgG1, kappa)
heavy 1: not shown
heavy 2: not shown
light: B1 light
notes: Anti-glypican-3 IgG1; the alteration is in the GpH7-B3 chain only; also called G237P
B11: GpH7-A5/GpH7-B3 variant G236_09D/GpL16-k0 (heterodimerized antibody, He Ab) (antibody, human IgG1, kappa)
heavy 1: not shown
heavy 2: not shown
light: B1 light
notes: Anti-glypican-3 IgG1; the alteration is in the GpH7-B3 chain only; also called G236D
B12: GpH7-A5/GpH7-B3 variant G236_11K/GpL16-k0 (heterodimerized antibody, He Ab) (antibody, human IgG1, kappa)
heavy 1: not shown
heavy 2: not shown
light: B1 light
notes: Anti-glypican-3 IgG1; the alteration is in the GpH7-B3 chain only; also called G236K
B13: GpH7-A5/GpH7-B3 variant G236_13S/GpL16-k0 (heterodimerized antibody, He Ab) (antibody, human IgG1, kappa)
heavy 1: not shown
heavy 2: not shown
light: B1 light
notes: Anti-glypican-3 IgG1; the alteration is in the GpH7-B3 chain only; also called G236S
B14: GpH7-A5/GpH7-B3 variant G237_09D/GpL16-k0 (heterodimerized antibody, He Ab) (antibody, human IgG1, kappa)
heavy 1: not shown
heavy 2: not shown
light: B1 light
notes: Anti-glypican-3 IgG1; the alteration is in the GpH7-B3 chain only; also called G237D
B15: GpH7-A5/GpH7-B3 variant G236_18N/GpL16-k0 (heterodimerized antibody, He Ab) (antibody, human IgG1, kappa)
heavy 1: not shown
heavy 2: not shown
light: B1 light
notes: Anti-glypican-3 IgG1; the alteration is in the GpH7-B3 chain only; also called G236N

Biological target: T1, FcγRIIb extracellular domain with …
Experiment: SPR (Biacore), captured antibody, FcγR as analyte; relative to GpH7-A5/GpH7-B3/GpL16-k0 = 100
Method: (§1) Analysis of interaction between objective antibody and the FcγR was carried out using Biacore T100 (GE Healthcare). HBS-EP+ (GE Healthcare) was used as the running buffer, and the measurement temperature was set to 25° C. Chips produced by immobilizing the antigen peptide by the amine coupling method to a Series S Sencor Chip CM5 (GE Healthcare), or alternatively, chips produced by allowing preliminarily biotinylated antigen peptides to interact with and immobilize onto a Series S Sensor Chip SA (certified) (GE Healthcare) were used. Antibodies of interest were captured onto an antigen peptide-immobilized chip, and allowed to interact to each FcγR diluted with running buffer. To regenerate and repeatedly use the chip, the antibodies captured on the chip were washed off by reacting 10 mM glycine-HCl, pH 1.5.
(§2) The FcγR-binding activity of each antibody was assessed primarily using as an indicator the FcγR-binding activity and dissociation constant for FcγR.

Point of comparison: B6, “He/Con_2b (IIb binding)” value 130 % of HeCon Ab. Against it:
- B1 — higher, 193 % of HeCon Ab
- B2 — lower, 108 % of HeCon Ab
- B3 — higher, 180 % of HeCon Ab
- B4 — higher, 152 % of HeCon Ab
- B5 — lower, 114 % of HeCon Ab
- B7 — higher, 150 % of HeCon Ab
- B8 — lower, 124 % of HeCon Ab
- B9 — higher, 149 % of HeCon Ab
- B10 — lower, 24.6 % of HeCon Ab
- B11 — higher, 167 % of HeCon Ab
- B12 — lower, 49.8 % of HeCon Ab
- B13 — lower, 96.7 % of HeCon Ab
- B14 — higher, 223 % of HeCon Ab
- B15 — lower, 96.4 % of HeCon Ab

Biological target: T2, FcγRIIIa extracellular domain with C-terminal His tag (human, UniProt P08637 17-208)
T2 construct: extracellular domain; also called FcgRIIIa; 3a; not shown: His tag at the C terminus
Experiment: as above
Method: as §1, §2

T2 sequence (P08637 17-208): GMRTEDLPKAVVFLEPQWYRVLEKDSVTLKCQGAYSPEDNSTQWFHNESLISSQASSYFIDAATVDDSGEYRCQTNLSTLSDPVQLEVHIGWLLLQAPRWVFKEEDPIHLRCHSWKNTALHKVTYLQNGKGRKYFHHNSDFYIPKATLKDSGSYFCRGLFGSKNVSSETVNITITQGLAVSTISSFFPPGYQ

Point of comparison: B10, “He/Con_3a (IIIa binding)” value 10.9 % of HeCon Ab. Against it:
- B1 — higher, 19.7 % of HeCon Ab
- B2 — higher, 43.3 % of HeCon Ab
- B3 — higher, 20.3 % of HeCon Ab
- B4 — higher, 22.1 % of HeCon Ab
- B5 — higher, 25.4 % of HeCon Ab
- B6 — higher, 31.9 % of HeCon Ab
- B7 — higher, 117 % of HeCon Ab
- B8 — higher, 48.8 % of HeCon Ab
- B9 — higher, 25.3 % of HeCon Ab
- B11 — higher, 71.2 % of HeCon Ab
- B12 — higher, 18.6 % of HeCon Ab
- B13 — higher, 64.8 % of HeCon Ab
- B14 — higher, 17.7 % of HeCon Ab
- B15 — higher, 37.8 % of HeCon Ab
